Test results: PMC4900556, “Connexin43 Forms Supramolecular Complexes through Non-Overlapping Binding Sites for Drebrin, Tubulin, and ZO-1” (PLoS ONE, 2016)

What was measured:
[1] = biological target: 15N-labeled Cx43CT^234-382 Y265D, GST tag cleaved (UniProt P08050); assay: NMR titration; 15N-HSQC, 600 MHz; 15N-labeled Cx43-CT constant at 50 μM in 1X PBS pH 7.5, unlabeled Drb^1-300 added from 50 to 700 μM; KD by nonlinear fitting of the decrease in signal intensity of at least three residues of each area
Sequence of 15N-labeled Cx43CT^234-382 Y265D, GST tag cleaved (UniProt P08050) (P08050 234-382 Y265D): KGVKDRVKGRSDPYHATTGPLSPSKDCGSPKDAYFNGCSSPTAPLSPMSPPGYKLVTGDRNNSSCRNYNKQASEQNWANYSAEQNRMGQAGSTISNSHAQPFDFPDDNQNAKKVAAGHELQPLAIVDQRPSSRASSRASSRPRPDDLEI

[2] = biological target: 15N-labeled Cx43CT^234-382 Y265D, GST tag cleaved (UniProt P08050 234-382, Y265D, 15N-labeled); assay: NMR; Area 3 (residues K303, N312, S314)
[3] = biological target: T1, 15N-labeled Cx43-CT^234-382 (WT), GST tag cleaved (UniProt P08050 234-382, 15N-labeled); assay: NMR titration; 15N-HSQC, 600 MHz; 15N-labeled Cx43-CT constant at 50 μM in 1X PBS pH 7.5, unlabeled Drb^1-300 added from 50 to 700 μM; KD by nonlinear fitting of the decrease in signal intensity of at least three residues of each area; settings: both partners purified
T1 construct: Construct used in the NMR titrations; source: E. coli BL21 DE3, purified (glutathione agarose), GST tag cleaved on the beads with Turbo 3C
T1 sequence (P08050 234-382): as the sequence (P08050 234-382 Y265D) above, with D32Y counted along it

B1: Drebrin A 1–300 (Drb^1-300), untagged (domain or fragment, UniProt Q9QXS6 1-300, looked up)
chain: MAGVSFSGHRLELLAAYEEVIREESAADWALYTYEDGSDDLKLAASGEGGLQELSGHFENQKVMYGFCSVKDSQAALPKYVLINWVGEDVPDARKCACASHVAKVAEFFQGVDVIVNASSVEDIDAGAIGQRLSNGLARLSSPVLHRLRLREDENAEPVGTTYQKTDAAVEMKRINREQFWEQAKKEEELRKEEERKKALDARLRFEQERMEQERQEQEERERRYREREQQIEEHRRKQQSLEAEEAKRRLKEQSIFGDQRDEEEESQMKKSESEVEEAAAIIAQRPDNPREFFRQQERV
notes: Drebrin A residues 1-300; also called drebrin amino acids 1–300; N-terminal fragment of drebrin; source: E. coli Rosetta cells, purified on glutathione-agarose column, GST tag digested and captured with a Thrombin kit
[1]
  KD of Area 3: 0.5 mM
[2]
  Kd: 466 µM
[3]
  KD of Area 1 (264–275): 283 µM
  KD of Area 2 (282–290): 279 µM
  KD of Area 3 (299–321): 344 µM
